{"source": "paper PMC4717663", "about": "(Nature structural & molecular biology, 2014)", "binders": {"B1": {"name": "soluble αVβ6 headpiece (complex)", "chain 1": "FNLDVDSPAEYSGPEGSYFGFAVDFFVPSASSRMFLLVGAPKANTTQPGIVEGGQVLKCDWSSTRRCQPIEFDATGNRDYAKDDPLEFKSHQWFGASVRSKQDKILACAPLYHWRTEMKQEREPVGTCFLQDGTKTVEYAPCRSQDIDADGQGFCQGGFSIDFTKADRVLLGGPGSFYWQGQLISDQVAEIVSKYDPNVYSIKYNNQLATRTAQAIFDDSYLGYSVAVGDFNGDGIDDFVSGVPRAARTLGMVYIYDGKNMSSLYNFTGEQMAAYFGFSVAATDINGDDYADVFIGAPLFMDRGSDGKLQEVGQVSVSLQRASGDFQTTKLNGFEVFARFGSAIAPLGDLDQDGFNDIAIAAPYGGEDKKGIVYIFNGRSTGLNAVPSQILEGQWAARSCPPSFGYSMKGATDIDKNGYPDLIVGAFGVDRAILYRARPVITVNAGLEVYPSILNQDNKTCSLPGTALKVSCFNVRFCLKADGKGVLPRKLNFQVELLLDKLKQKGAIRRALFLYSRSPSHSKNMTISRGGLMQCEELIAYLRDESEFRDKLTPITIFMEYRLDYRTAADTTGLQPILNQFTPANISRQAHILLDTGGLEVLFQ", "chain 2": "HVQGGCALGGAETCEDCLLIGPQCAWCAQENFTHPSGVGERCDTPANLLAKGCQLNFIENPVSQVEILKNKPLSVGRQKNSSDIVQIAPQSLILKLRPGGAQTLQVHVRQTEDYPVDLYYLMDLSASMDDDLNTIKELGSRLSKEMSKLTSNFRLGFGSFVEKPVSPFVKTTPEEIANPCSSIPYFCLPTFGFKHILPLTNDAERFNEIVKNQKISANIDTPEGGFDAIMQAAVCKEKIGWRNDSLHLLVFVSDADSHFGMDSKLAGIVCPNDGLCHLDSKNEYSMSTVLEYPTIGQLIDKLVQNNVLLIFAVTQEQVHLYENYAKLIPGATVGLLQKDSGNILQLIISAYEELRSEVELEVLGDTEGLNLSFTAICNNGTLFQHQKKCSHMKVGDTASFSVTVNIPHCERRSRHIIIKPVGLGDALELLVSPECNCDCQKEVEVNSSKCHHGNGSFQCGVCACHPGHMGPRCESRGLQTLFQ"}}, "test_in_all_cases": "fluorescence polarisation", "key": {"[1]": {"target": "nonapeptide containing RGD from pro-TGF-β3"}, "[2]": {"target": "soluble αVβ3 headpiece (human, UniProt P06756 31-624; P05106 27-498, M400C | Q267C)", "sequence (P05106 27-498 Q293C, one chain of several)": "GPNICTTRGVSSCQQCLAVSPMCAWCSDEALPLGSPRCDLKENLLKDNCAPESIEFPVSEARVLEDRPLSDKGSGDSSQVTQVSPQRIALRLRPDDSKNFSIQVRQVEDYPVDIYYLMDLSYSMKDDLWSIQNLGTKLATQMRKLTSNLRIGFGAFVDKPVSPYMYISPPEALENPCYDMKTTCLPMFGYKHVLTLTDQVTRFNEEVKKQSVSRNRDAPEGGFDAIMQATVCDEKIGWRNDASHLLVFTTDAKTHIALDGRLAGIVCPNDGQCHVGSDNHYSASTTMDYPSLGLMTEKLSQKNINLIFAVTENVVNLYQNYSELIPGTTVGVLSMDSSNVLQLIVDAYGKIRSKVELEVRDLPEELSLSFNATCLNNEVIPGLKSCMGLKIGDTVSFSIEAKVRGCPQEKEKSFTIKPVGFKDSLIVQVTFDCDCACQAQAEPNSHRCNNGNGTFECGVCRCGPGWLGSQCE"}, "[3]": {"target": "B1"}}, "note": "No end group written: not given here. *: point of attachment. FITC = O=C1OC2(c3ccc(O)cc3Oc3cc(O)ccc32)c2ccc(NC(=S)*)cc21; Ahx = NCCCCCC(=O)O"}
{"binder": "B1", "values": [{"measurement": "Kd", "setting": "[1]", "value": 0.0085, "unit": "µM"}]}
{"binder": "{FITC-Ahx}-GRGDLGRL", "note": "[FITC–pro-TGF-β3 peptide (FITC-aminohexanoic-GRGDLGRL)]", "values": [{"measurement": "binding result", "setting": "[2]", "value": "binds"}]}
{"binder": "YTSGDQKTI", "note": "[homologous peptide from pro-TGF-β2 (SGD in place of RGD)]", "values": [{"measurement": "Kd", "setting": "[3]", "value": 8.5, "unit": "µM"}]}
